# From paper doi:10.1101/2020.07.23.218024
# Like-named read-outs stand apart in the source and are kept apart here.
# How the values were obtained:
# Experiment in all cases: ELISA
# [1] = target: microtubules / purified porcine brain tubulin (porcine)
# [2] = target: microtubules / purified porcine brain tubulin (porcine); remark: listed apart in the source
# GST-PEX14-NTD (human) = GST-PEX14-NTD (human) (UniProt O75381)
# Sequence of GST-PEX14-NTD (human) (O75381 1-80): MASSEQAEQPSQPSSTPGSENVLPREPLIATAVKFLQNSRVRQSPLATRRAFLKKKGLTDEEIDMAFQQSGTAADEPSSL
substance,measurement,setting,value
monomeric His-tagged Kif5B kinesin motor domain (domain or fragment),Kd,[1],56.6 nM
His-PEX14-NTD (from UniProt O75381 1-80) (domain or fragment),fold weaker affinity than GST-PEX14-NTD/MT,[1],> 100 fold
GST-PEX14-NTD (from UniProt O75381 1-80) (domain or fragment),Kd,[1],2.1 nM
same,Kd,[2],0.7 to 2.3 nM
full-length His6-TEV-PEX5S (from UniProt P50542-2 1-602) (natural protein),IC50,GST-PEX14-NTD (human),1200 nM
